In publication PMC5031558 (2016) one finds koff and Kd data, which are given here for two molecules.

First the molecules themselves.
B1: SPATA2 PUB domain (aa 1–241) (domain or fragment)
chain: MGKPSSMDTKFKDDLFRKYVQFHESKVDTTTSRQRPGSDECLRVAASTLLSLHKVDPFYRFRLIQFYEVVESSLRSLSSSSLRALHGAFSMLETVGINLFLYPWKKEFRSIKTYTGPFVYYVKSTLLEEDIRAILSCMGYTPELGTAYKLRELVETLQVKMVSFELFLAKVECEQMLEIHSQVKDKGYSELDIVSERKSSAEDVRGCSDALRRRAEGREHLTASMSRVALQKSASERAAKD
B2: CYLD USP domain (aa 583–956) (domain or fragment)
chain: GLEIMIGKKKGIQGHYNSCYLDSTLFCLFAFSSVLDTVLLRPKEKNDVEYYSETQELLRTEIVNPLRIYGYVCATKIMKLRKILEKVEAASGFTSEEKDPEEFLNILFHHILRVEPLLKIRSAGQKVQDCYFYQIFMEKNEKVGVPTIQQLLEWSFINSNLKFAEAPSCLIIQMPRFGKDFKLFKKIFPSLELNITDLLEDTPRQCRICGGLAMYECRECYDDPDISAGKIKQFCKTCNTQVHLHPKRLNHKYNPVSLPKDLPDWDWRHGCIPCQNMELFAVLCIETSHYVAFVKYGKDDSAWLFFDSMADRDGGQNGFNIPQVTPCPEVGEYLKMSLEDLHSLDSRRIQGCARRLLCDAYMCMYQSPTMSLYK

Experiment [1] concerns the target T1, CYLD USP domain I790D (human, UniProt Q9NQC7 583-956, I790D).
T1 sequence: B2 chain with I208D
As to the kind of experiment: SPR.

Experiment [2] has as its target T1, CYLD USP domain I790D. As to the kind of experiment: SPR; kinetic.
Experiment [3] deals with T2, CYLD USP domain L622D (human, UniProt Q9NQC7 583-956, L622D).
T2 sequence: B2 chain with L40D
Nature of the experiment: SPR; equilibrium.

Experiment [4] addresses CYLD ΔB-box (purified USP domain without the B-box) (human, UniProt Q9NQC7 592-950). Nature of the experiment: SPR; equilibrium.
In experiment [5] the target is B1. Nature of the experiment: SPR.
Experiment [6] deals with B1. Nature of the experiment: SPR; kinetic.

Changes are numbered by the printed parent chain.

In turn, B1 showed a koff in experiment [1] of 0.086 s⁻¹. Besides, the Kd is 585 nM in experiment [2], above 60 µM in experiment [3] and above 100 µM in experiment [4].
With B2, the koff in experiment [5] is 0.02 s⁻¹. Binding in experiment [6] was put at a Kd of 84 nM.
